# Source: patent US20220218659
# T1: Human ACLY, His-tagged, bacterially expressed and purified recombinant full length protein, P53396
# T1 chain: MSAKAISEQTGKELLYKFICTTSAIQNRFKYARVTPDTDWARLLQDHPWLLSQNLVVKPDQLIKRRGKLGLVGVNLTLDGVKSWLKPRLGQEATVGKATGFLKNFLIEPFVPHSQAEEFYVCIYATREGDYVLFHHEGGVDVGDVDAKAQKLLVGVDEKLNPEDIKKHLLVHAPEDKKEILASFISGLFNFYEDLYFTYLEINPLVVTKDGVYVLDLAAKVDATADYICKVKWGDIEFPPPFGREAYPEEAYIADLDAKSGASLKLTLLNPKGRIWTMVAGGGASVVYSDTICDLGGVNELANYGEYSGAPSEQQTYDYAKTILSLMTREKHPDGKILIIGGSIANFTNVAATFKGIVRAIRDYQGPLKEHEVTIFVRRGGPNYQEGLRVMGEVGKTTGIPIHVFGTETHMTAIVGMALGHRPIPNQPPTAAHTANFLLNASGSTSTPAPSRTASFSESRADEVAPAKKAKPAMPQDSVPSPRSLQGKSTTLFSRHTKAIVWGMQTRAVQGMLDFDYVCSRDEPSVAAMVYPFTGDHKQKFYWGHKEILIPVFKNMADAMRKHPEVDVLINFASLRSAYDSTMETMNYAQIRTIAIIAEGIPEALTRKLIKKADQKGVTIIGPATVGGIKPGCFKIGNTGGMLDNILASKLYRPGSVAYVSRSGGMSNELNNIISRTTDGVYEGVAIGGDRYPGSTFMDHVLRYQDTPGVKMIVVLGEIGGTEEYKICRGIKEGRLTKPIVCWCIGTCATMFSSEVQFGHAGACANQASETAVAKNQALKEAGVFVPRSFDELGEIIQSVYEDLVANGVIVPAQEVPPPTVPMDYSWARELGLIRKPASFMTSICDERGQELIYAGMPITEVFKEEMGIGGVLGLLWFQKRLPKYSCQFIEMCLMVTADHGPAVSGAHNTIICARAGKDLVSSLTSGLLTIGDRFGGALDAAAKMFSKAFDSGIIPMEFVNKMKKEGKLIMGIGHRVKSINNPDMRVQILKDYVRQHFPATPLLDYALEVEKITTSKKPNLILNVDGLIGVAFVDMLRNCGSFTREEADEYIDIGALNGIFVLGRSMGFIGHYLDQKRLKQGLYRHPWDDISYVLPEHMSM
# Target: T1, Human ACLY, His-tagged, bacterially …
protein,measurement,value
Active recombinant Lyn kinase (protein) MGCIKSKGKDSLSDDGVDLKTQPVRNTERTIYVRDPTSNKQQRPVPESQLLPGQRFQTKDPEEQGDIVVALYPYDGIHPDDLSFKKGEKMKVLEEHGEWWKAKSLLTKKEGFIPSNYVAKLNTLETEEWFFKDITRKDAERQLLAPGNSAGAFLIRESETLKGSFSLSVRDFDPVHGDVIKHYKIRSLDNGGYYISPRITFPCISDMIKHYQKQADGLCRRLEKACISPKPQKPWDKDAWEIPRESIKLVKRLGAGQFGEVWMGYYNNSTKVAVKTLKPGTMSVQAFLEEANLMKTLQHDKLVRLYAVVTREEPIYIITEYMAKGSLLDFLKSDEGGKVLLPKLIDFSAQIAEGMAYIERKNYIHRDLRAANVLVSESLMCKIADFGLARVIEDNEYTAREGAKFPIKWTAPEAINFGCFTIKSDVWSFGILLYEIVTYGKIPYPGRTNADVMTALSQGYRMPRVENCPDELYDIMKMCWKEKAEERPTFDYLQSVLDDFYTATEGQYQQQP,ACLY tyrosine residues phosphorylated (phosphoproteomics),"The three ACLY tyrosine residues, Y682, Y252, Y227, were common for Lyn and Src"
same,"number of ACLY tyrosine residues phosphorylated (in vitro kinase assay, phosphoproteomics) (tyrosine residues)",6
